Experimental data published in patent publication US20210299283A1 (SANFORD BURNHAM PREBYS MEDICAL DISCOVERY INSTITUTE, published 2021).
Primed or numbered codes have the meaning given here. Where no end group is shown, it is not given here. [ ]: non-standard residue; d: D form. Ahx = NCCCCCC(=O)O; FAM″ = fluorescein

T1: CTGF, endogenous human (U251 astrocytoma cell lysate; human AD brain sections) (human, UniProt P29279 27-349, limits assumed)
T1 construct: Native protein in a cell lysate, on cells or in tissue sections; Identified by LC-MS/MS against the Uniprot database; also called CCN2; connective tissue growth factor
T1 sequence (looked up): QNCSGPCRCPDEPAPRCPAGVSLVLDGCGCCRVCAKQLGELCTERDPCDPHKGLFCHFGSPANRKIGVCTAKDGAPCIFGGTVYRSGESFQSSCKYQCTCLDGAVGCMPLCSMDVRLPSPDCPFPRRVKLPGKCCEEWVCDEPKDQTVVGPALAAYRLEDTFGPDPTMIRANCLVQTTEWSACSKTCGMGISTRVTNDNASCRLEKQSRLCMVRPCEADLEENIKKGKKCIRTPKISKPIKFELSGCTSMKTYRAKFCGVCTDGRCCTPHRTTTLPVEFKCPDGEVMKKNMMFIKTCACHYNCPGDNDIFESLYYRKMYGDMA


Legend:
[1] = molecular target: T1, CTGF, endogenous human (U251 …); test: affinity chromatography of U251 cell lysate on biotin-DAG magnetic particles, control peptide wash, elution with 1 mM free DAG, LC-MS/MS
Procedure: For identifying DAG binding proteins, the human glioblastoma astrocytoma cell line U251 was lysed in PBS containing 200 mM n-octyl-beta-D-glucopyranoside and protease inhibitor cocktail (Roche) as described previously with slight modifications. The clarified lysates were loaded on to Sera-Mag magnetic particles (GE Healthcare Lifesciences, USA) coated with biotin-DAG, and incubated overnight with rotation at 4° C. The magnetic beads were washed with wash buffer followed by additional washing with 0.5 mM control peptide ([…]; SEQ ID NO: 103) to remove non-specifically bound proteins. The bound proteins were eluted with 1 mM free DAG peptide. The eluted factions were pooled, their protein concentration determined by using bicinchoninic acid (BCA) protein assay (Pierce) and the samples were digested using the Filter-aided Sample Preparation (FASP) method. Finally, the digested samples were dried, desalted and subjected to LC-MS/MS analysis at the Sanford Burnham Prebys Medical Discovery Institute's Proteomics Core facility. All mass spectra were analyzed with MaxQuant™ software version 1.5.0.25. The MS/MS spectra were searched against the Uniprot™ protein sequence database (version July 2014).

[2] = molecular target: T1, CTGF, endogenous human (U251 …); test: DAG-AgNP binding to cultured U251 cells, fluorescence microscopy
Procedure: FIG. 7 is a graphical representation showing quantity of DAG-coated silver nanoparticles (DAG-AgNPs) binding to human astrocytoma U251 cells. Cultured U251 cells were incubated with DAG-AgNPs alone, in the presence of free non-labeled control peptide, or an excess of free, non-labeled DAG (both at 200 μM), for 1 hour at 37° C. Nanoparticle binding was quantified from fluorescence micrographs using ImageJ™ software. Scale bar, 20 μm.
Cell binding experiments on U251 cells and hiPSCs were with done using peptide conjugated AgNP. U251 cells were cultured in a 96-well plate. The cells were blocked with 200 μl of 10% FCS in HBSS (Hanks' Balanced Salt Solution from Gibco) for 30 min at 37° C. Following that, DAG-AgNPs (0.5 nM concentration diluted in HBSS) alone or in the presence of free non-labeled peptide (200 μM) were incubated on the cells for 1 hour at 37° C. After washing the unbound AgNP with HBSS three times, the plates were imaged with fluorescent microscopy by looking at intrinsic emission from the FAM tag on the peptide. hiPSCs were cultured in 48 well plate and similar protocol as described above was followed, with the exception that AgNP concentration for incubation was kept at 0.15 nM. Nanoparticle binding was quantified from fluorescence micrographs using ImageJ™ software.

Row | binding result [1] | binding result [2] | Binder
1 | binds |  | CDAGRKQKC-NH2 (not fully specified (bridges); also: fluorescein (FAM) or biotin tag at the N-terminus, described as a cyclic peptide, ring not given here, also called FAM-DAG; FAM-labeled DAG) [DAG peptide (CDAGRKQKC), labelled synthetic cyclic peptide]
2 |  | binds | {FAM″}-C[Ahx]CDAGRKQKC-NH2 (also: conjugated via the added Cys thiol to maleimide-PEG on silver nanoparticles, Many copies of the peptide on silver nanoparticles of about 35 nm; also called DAG-AgNP; DAG-AgNPs) [DAG-conjugated silver nanoparticles (FAM-cys-x-DAG-NH2 on AgNPs)]
